Assay results from patent US6673902B2, “Cyclin D binding factor, and uses thereof” (St. Jude Children's Research Hospital, priority 1996, dated 2004).

Columns and labels:
[1] = molecular target: T1, recombinant DMP1 (Mus musculus, UniProt Q8CE22); assay: EMSA competition with Sf9 lysates producing recombinant DMP1; assay type: binding; conditions: excess unlabeled oligonucleotide
T1 construct: made in house; host or cells: Sf9 insect cells, pAcYM1 baculovirus vector; used as crude lysate (~4 ng DMP1 per reaction)
T1 sequence (Q8CE22 1-761): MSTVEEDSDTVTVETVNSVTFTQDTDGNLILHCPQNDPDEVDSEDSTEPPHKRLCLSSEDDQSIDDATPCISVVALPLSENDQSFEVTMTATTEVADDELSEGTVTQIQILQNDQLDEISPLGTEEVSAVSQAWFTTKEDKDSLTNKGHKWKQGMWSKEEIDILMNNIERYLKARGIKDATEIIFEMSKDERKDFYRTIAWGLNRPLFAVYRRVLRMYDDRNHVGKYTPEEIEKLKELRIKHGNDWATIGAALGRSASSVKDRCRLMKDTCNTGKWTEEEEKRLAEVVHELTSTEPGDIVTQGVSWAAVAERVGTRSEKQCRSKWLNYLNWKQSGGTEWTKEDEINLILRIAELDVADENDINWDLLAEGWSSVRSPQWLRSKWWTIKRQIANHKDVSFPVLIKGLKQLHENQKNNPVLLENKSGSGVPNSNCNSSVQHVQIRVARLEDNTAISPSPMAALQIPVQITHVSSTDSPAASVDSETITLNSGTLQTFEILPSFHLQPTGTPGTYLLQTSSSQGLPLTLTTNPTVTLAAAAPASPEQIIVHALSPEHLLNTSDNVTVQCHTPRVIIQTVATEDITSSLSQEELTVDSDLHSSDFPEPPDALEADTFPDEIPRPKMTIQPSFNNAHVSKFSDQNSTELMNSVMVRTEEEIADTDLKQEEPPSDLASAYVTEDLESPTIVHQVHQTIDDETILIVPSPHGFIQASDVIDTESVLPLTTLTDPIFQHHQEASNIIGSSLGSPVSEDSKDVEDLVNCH
Description: (§1) Double-stranded oligonucleotides containing potential DMP1 binding sites (BS1 and BS2) and mutated versions (M1-M4) (FIG. 5B) are end-labeled with ^32P using the Klenow fragment of DNA polymerase and α-^32P-dATP (6000 Ci/mmol; Dupont NEN) (8). Nuclear extracts from mouse NIH-3T3 or CTLL cells are prepared with buffer containing 0.4 M NaCl (2). Mammalian cell extracts (15 μg protein) or Sf9 lysates (corresponding to 5×10^2 infected cells) containing ˜4 ng recombinant DMP1 are mixed with 3 ng of ^32P-labeled probe (1×10^5 cpm) in 15 ul Binding buffer containing 2.5 μg of poly(dI-dC) and 2.5 μg BSA and incubated at 4° C. for 30 minutes. For competition experiments, the indicated amounts of unlabeled oligonucleotides are added to the reactions before addition of the labeled probe. In some experiments, a bacterially produced GST-Ets2 fusion protein containing the complete Ets2 DNA-binding domain (10) is used in place of Sf9 extracts containing recombinant DMP1. Protein-DNA complexes are separated on nondenaturing 4% polyacrylamide gels as described (8). Where indicated, antiserum to DMP1 together with 2.5 μg salmon testis DNA (Sigma; used to reduce nonspecific DNA binding activity caused by serum addition) is preincubated with extracts for 30 minutes at 4° C. prior to initiation of binding reactions. Immune complexes are either removed by adsorption to protein A-Sepharose beads (immunodepletion experiments) or are allowed to remain (“supershift” experiments).
(§2) Using electrophoretic mobility shift assays (EMSA) performed after mixing a titrated excess (3 ng) of ^32P-end labeled BS1 probe with Sf9 lysates producing DMP1 (˜4 ng recombinant protein per reaction), a BS1-containing protein complex is detected that was competed with an excess of unlabeled BS1 oligonucleotide but not with mutant oligonucleotides M1 and M2 (FIG. 6A). […] More subtle mutations within this region may be tolerated, because high concentrations of M4 competed for BS1 binding to both Ets2 and DMP1 in subsequent studies (FIG. 5B and see below). DMP1 also binds a BS2 probe, and the binding is competed by excess BS2 or BS1 (FIG. 6B). In agreement with the site selection frequencies (FIG. 5A), binding of ^32P-BS1 under equivalent conditions was competed more efficiently by excess unlabeled BS1 than by BS2 (FIG. 6B). […] In agreement, Ets2 binding to BS1 could be competed with excess unlabeled BS1 and M3, but not by BS2 (FIG. 6C). Therefore, although both DMP1 and Ets2 can each bind to BS1 sequences, their exclusive interactions with BS2 and M3, respectively, help to distinguish DMP1 and Ets binding activities (summarized in FIG. 5B).

[2] = molecular target: T2, GST-Ets2 fusion protein (Homo sapiens, UniProt P15036); assay: EMSA competition with bacterial GST-Ets2 fusion protein; assay type: binding; conditions: excess unlabeled oligonucleotide
T2 construct: made in house; host or cells: bacteria
T2 sequence (P15036 363-443 limits assumed): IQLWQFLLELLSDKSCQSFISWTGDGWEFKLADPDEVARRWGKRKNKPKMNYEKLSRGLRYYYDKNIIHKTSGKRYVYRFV
Description: as §1, §2

## M3: DMP1 deletion mutant (NcoI), amino acids 1-458 of SEQ ID NO:1
[1]
  competition for 32P-BS1 probe binding to DMP1: does not compete
  competition for BS2 probe binding to DMP1: does not compete
[2]
  competition for BS1 binding to Ets2: competed
